In patent US20260201045A1 (Regeneron, published 2026):
Changes are numbered by the printed parent chain.

Experiments:
[1] = target: T1, human CNTFR extracellular domain expressed with a C-terminal mouse IgG2a Fc tag (human); test: SPR Biacore 4000, mAb captured by anti-human Fc, antigen injected, 37 C
T1 construct: also called hCNTFR-mFc; dimeric hCNTFR-mFc
T1 chain: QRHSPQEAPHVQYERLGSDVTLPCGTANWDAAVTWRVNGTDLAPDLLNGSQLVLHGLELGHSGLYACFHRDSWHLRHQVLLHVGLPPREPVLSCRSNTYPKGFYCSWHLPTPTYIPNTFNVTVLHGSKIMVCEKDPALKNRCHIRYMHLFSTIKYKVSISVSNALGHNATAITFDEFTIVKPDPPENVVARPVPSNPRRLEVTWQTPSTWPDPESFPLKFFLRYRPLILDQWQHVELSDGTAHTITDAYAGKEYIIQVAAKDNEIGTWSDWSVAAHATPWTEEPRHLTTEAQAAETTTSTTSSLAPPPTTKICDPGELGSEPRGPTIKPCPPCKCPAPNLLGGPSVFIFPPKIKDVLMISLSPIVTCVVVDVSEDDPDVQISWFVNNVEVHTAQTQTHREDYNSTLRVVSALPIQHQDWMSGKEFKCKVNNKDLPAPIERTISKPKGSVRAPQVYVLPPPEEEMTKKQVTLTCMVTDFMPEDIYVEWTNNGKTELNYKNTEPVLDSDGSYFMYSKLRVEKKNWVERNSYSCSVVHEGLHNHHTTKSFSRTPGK
Experimental: (§1) Equilibrium dissociation constants (KD) for CNTFR binding to purified anti-CNTFR monoclonal antibodies were determined using a real-time surface plasmon resonance (SPR) based Biacore 4000 biosensor. All binding studies were performed in 10 mM HEPES, 150 mM NaCl, 3 mM EDTA, and 0.05% v/v surfactant Tween-20, pH 7.4 (HBS-ET) running buffer at 25° C. and 37° C. The Biacore CM4 sensor surface was first derivatized by amine coupling with a monoclonal mouse anti-human Fc antibody (REGN2567) to capture anti-CNTFR monoclonal antibodies. Different concentrations of CNTFR reagents, human CNTFR extracellular domain expressed with a C-terminal myc-myc-hexahistidine tag (hCNTFR-mmh; SEQ ID NO:42), monkey CNTFR extracellular domain expressed with a C-terminal myc-myc-hexahistidine tag (mfCNTFR-mmh; SEQ ID NO:43), mouse CNTFR extracellular domain expressed with a C-terminal myc-myc-hexahistidine tag (mCNTFR-mmh; SEQ ID NO:44), and human CNTFR extracellular domain expressed with a C-terminal mouse IgG2a Fc tag (hCNTFR-mFc; SEQ ID NO: 45), at concentrations ranging from 6.25 nM to 100 nM in a series of 4-fold dilutions prepared in HBS-ET running buffer were injected at a flow rate of 30 μL/min for 2.5 minutes. The dissociation of different CNTFR reagents bound to anti-CNTFR monoclonal antibodies was monitored for 10 minutes in HBS-ET running buffer. At the end of each cycle, the anti-CNTFR monoclonal antibodies capture surface was regenerated using a 12 sec injection of 20 mM H3PO4. The association rate (ka) and dissociation rate (kd) were determined by fitting the real-time specific binding sensorgrams to a 1:1 binding model with mass transport limitation using Scrubber 2.0c curve-fitting software. Binding dissociation equilibrium constant (KD) and dissociative half-life (t½) were calculated from the kinetic rates as: […]

[2] = target: T2, human CNTFR extracellular domain (Q23-V105)/mCNTFR (G106-S342) expressed with a C-terminal … (human/mouse chimera, UniProt P26992 23-342); test: SPR Biacore S200, antigen captured by anti-myc, mAb injected, 25 C
T2 construct: Human/mouse chimeric CNTFR domain protein; also called hCNTFR (Q23-V105)/mCNTFR (G106-S342).mmh; hCNTFR (Q23-V105)_mCNTFR (G106-S342).mmh
T2 chain: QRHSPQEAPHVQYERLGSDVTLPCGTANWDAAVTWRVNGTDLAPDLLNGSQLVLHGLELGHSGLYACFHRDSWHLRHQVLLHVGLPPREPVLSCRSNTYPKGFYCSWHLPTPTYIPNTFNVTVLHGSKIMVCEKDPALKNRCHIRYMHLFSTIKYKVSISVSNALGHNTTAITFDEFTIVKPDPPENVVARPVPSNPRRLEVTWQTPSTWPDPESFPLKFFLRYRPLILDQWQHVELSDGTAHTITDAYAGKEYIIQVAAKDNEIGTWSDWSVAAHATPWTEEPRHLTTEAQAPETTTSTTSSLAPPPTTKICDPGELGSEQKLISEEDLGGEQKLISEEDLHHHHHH

[3] = target: T3, human CNTFR extracellular domain expressed with a C-terminal myc-myc-hexahistidine tag (human, UniProt P26992 23-342); test: SPR Biacore S200, antigen captured by anti-myc, 100 nM mAb injected, 25 C
T3 construct: The entry holds the tag as well; also called hCNTFR-mmh; hCNTFR.mmh

[4] = target: T4, human CNTFR extracellular domain (Q23-D205)/mCNTFR (P206-S342) expressed with a C-terminal … (human/mouse chimera, UniProt P26992 23-342); test: as above
T4 construct: Human/mouse chimeric CNTFR domain protein; also called hCNTFR (Q23-D205)/mCNTFR (P206-S342).mmh; hCNTFR (Q23-D205)_mCNTFR(P206-S342).mmh

[5] = target: T2, human CNTFR extracellular domain …; test: as above
[6] = target: T5, full length human CNTFR (hCNTFR, amino acids 1-372, UniProtKB/Swiss-Prot Accession #P26992) (human, UniProt P26992 23-342); test: flow cytometry on HEK293/hCNTFR cells
T5 construct: also called HEK293/hCNTFR; CNTFR endogenously expressed on IMR-32/STAT3-luc cells
T5 sequence: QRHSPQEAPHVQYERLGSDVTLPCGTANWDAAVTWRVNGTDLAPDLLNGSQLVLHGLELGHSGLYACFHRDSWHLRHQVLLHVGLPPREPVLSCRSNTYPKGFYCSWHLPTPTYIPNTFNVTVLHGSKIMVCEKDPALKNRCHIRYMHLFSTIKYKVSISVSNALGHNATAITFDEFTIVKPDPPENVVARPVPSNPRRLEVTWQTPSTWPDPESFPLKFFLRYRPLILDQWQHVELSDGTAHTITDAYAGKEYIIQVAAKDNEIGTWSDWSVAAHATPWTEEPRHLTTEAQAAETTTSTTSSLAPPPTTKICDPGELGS
Experimental: (§2) To assess binding of the anti-CNTFR antibodies to CNTFR receptors expressed on the cell surface, each of the HEK293/CNTFR cells listed above or HEK293 parental cells were diluted to 5×10⁵ cells/well in 96-well v-bottom plates. […] Cells were fixed using BD CytoFix™ (Becton Dickinson, #554655), filtered, and then analyzed on IQuePlus® Flow Cytometer (Intellicyt®). Geometric Mean Fluorescent Intensity (MFI) values were calculated by Forecyt Software and plotted in GraphPad Prism using a 4-parameter logistic equation over the 8-point dose-response curve to obtain EC₅₀ values. […] The secondary only condition was excluded from the EC₅₀ calculation.

[7] = target: T6, full length mouse CNTFR (mCNTFR, amino acids 1-372, UniProtKB/Swiss-Prot Accession #088507) (mouse, UniProt O88507 23-342); test: flow cytometry on HEK293/mCNTFR cells
T6 construct: whole, on cells; also called HEK293/mCNTFR
T6 sequence (looked up): T5 sequence with R2K, S18A, N28S, V53I, H55R, G56S, A169T, A294P
Experimental: as §2

[8] = target: T1, human CNTFR extracellular domain …; test: SPR Biacore 4000, mAb captured by anti-human Fc, antigen injected, 25 C
Experimental: as §1

[9] = target: T7, mouse CNTFR extracellular domain expressed with a C-terminal myc-myc-hexahistidine tag (mouse, UniProt O88507 23-342); test: as above
T7 construct: The entry holds the tag as well; also called mCNTFR-mmh
Experimental: as §1

Kd [1]: 27.2 nM
koff [1]: 0.000784 s⁻¹
kon [1]: 28800 M⁻¹ s⁻¹
t½ [1]: 15 min
binding result [2]: no binding (tested: 100 nM)
100 nM mAb Bound (RU) [3]: 80 RU
100 nM mAb Bound (RU) [4]: 89 RU
100 nM mAb Bound (RU) [5]: 1 RU
EC50 [6]: 4.33 nM
Max. Fold Binding [6]: 510 fold over secondary antibody alone
binding result [7]: no binding (tested: 375 nM)
Kd [8]: 7.22 nM
koff [8]: 0.000125 s⁻¹
kon [8]: 17300 M⁻¹ s⁻¹
t½ [8]: 93 min
binding result [9]: no binding (tested: 100 nM)
B1: mAb25311P2 (antibody, human IgG4 S228P, kappa, V domains shown)
VH: QVQLVESGGGVVQPGRSLRLSCVASGFTFSTSVMHWVRQAPGKGLEWVANIWYDGINKFYVDSVKGRFTISRDNSKNTLYLQMNSLRAEDTAVYYCAREFWSAFDLWGQGTMVTVSS
VL: not shown
